{"source": "patent US20220195023A1", "about": "(ATRECA, published 2022)", "binders": {"B1": {"name": "AB-007028 (antibody, V domains shown)", "VH": "QMQLVESGGGVVQPGRSLRLSCAASGFTFSTYAMHWVRQAPGQGLQWVAVISYHSTNKYYEDSVRGRFTISRDNSKNTLYLQMNSLRAEDTAVYYCARDGYSSSFFDFWGQGTLVTVSS", "VL": "DIQMTQSPSTLSASVGDRVTITCRASQSISRWLAWYQQQPGKAPKLLMSGASVLESGVPSRFSGSGSGTEFTLTISSLQPDDFATYYCQHYNSYFVTFGQGTKVEIK"}, "B2": {"name": "AB-007030 (antibody, V domains shown)", "VH": "B1 VH with A23T, A40S, Q46E, E61A", "VL": "B1 VL with T20A"}, "B3": {"name": "AB-007031 (antibody, V domains shown)", "VH": "B1 VH with A23T, A40S", "VL": "B1 VL with T20A, M48I"}, "B4": {"name": "AB-007032 (antibody, V domains shown)", "VH": "B1 VH with M2V", "VL": "B1 VL with M48I"}, "B5": {"name": "AB-007033 (antibody, V domains shown)", "VH": "B1 VH with Q46E, E61A", "VL": "B1 VL"}, "B6": {"name": "AB-007034 (antibody, V domains shown)", "VH": "B1 VH with M2V, Q46E, E61A", "VL": "B1 VL with M48I"}, "B7": {"name": "AB-007035 (antibody, V domains shown)", "VH": "B1 VH with A23T, T31S, A40S", "VL": "B1 VL with T20A"}, "B8": {"name": "AB-007036 (antibody, V domains shown)", "VH": "B1 VH with A23T, A40S, H54D", "VL": "B1 VL with T20A"}, "B9": {"name": "AB-007037 (antibody, V domains shown)", "VH": "B1 VH with A23T, A40S, R65K", "VL": "B1 VL with T20A"}, "B10": {"name": "AB-007038 (antibody, V domains shown)", "VH": "B1 VH with A23T, A40S, F108Y", "VL": "B1 VL with T20A"}, "B11": {"name": "AB-007039 (antibody, V domains shown)", "VH": "B1 VH with A23T, A40S", "VL": "B1 VL with T20A, F95S"}, "B12": {"name": "AB-007040 (antibody, V domains shown)", "VH": "B1 VH with A23T, A40S", "VL": "B1 VL with T20A, F95Y"}, "B13": {"name": "AB-007041 (antibody, V domains shown)", "VH": "B1 VH with A23T, T31D, A40S", "VL": "B1 VL with T20A"}, "B14": {"name": "AB-007042 (antibody, V domains shown)", "VH": "B1 VH with A23T, A40S", "VL": "B1 VL with T20A, S28D"}, "B15": {"name": "AB-007043 (antibody, V domains shown)", "VH": "B1 VH with A23T, A40S", "VL": "B1 VL with T20A, S56D"}, "B16": {"name": "AB-007044 (antibody, V domains shown)", "VH": "B1 VH with A23T, A40S, D62E", "VL": "B1 VL with T20A"}, "B17": {"name": "AB-007045 (antibody, V domains shown)", "VH": "B1 VH with A23T, A40S, G100A", "VL": "B1 VL with T20A"}, "B18": {"name": "AB-007046 (antibody, V domains shown)", "VH": "B1 VH with A23T, A40S", "VL": "B1 VL with T20A, N92Y"}, "B19": {"name": "AB-007047 (antibody, V domains shown)", "VH": "B1 VH with A23T, T31N, A40S", "VL": "B1 VL with T20A"}, "B20": {"name": "AB-007048 (antibody, V domains shown)", "VH": "B1 VH with A23T, A33S, A40S", "VL": "B1 VL with T20A"}, "B21": {"name": "AB-007049 (antibody, V domains shown)", "VH": "B1 VH with A23T, A40S, Y53N, S55E", "VL": "B1 VL with T20A"}, "B22": {"name": "AB-007050 (antibody, V domains shown)", "VH": "B1 VH with A23T, A40S, Y53Q", "VL": "B1 VL with T20A"}, "B23": {"name": "AB-007051 (antibody, V domains shown)", "VH": "B1 VH with A23T, A40S, T56R", "VL": "B1 VL with T20A"}, "B24": {"name": "AB-007052 (antibody, V domains shown)", "VH": "B1 VH with A23T, A40S, T56N", "VL": "B1 VL with T20A"}, "B25": {"name": "AB-007053 (antibody, V domains shown)", "VH": "B1 VH with A23T, A40S, N57Q", "VL": "B1 VL with T20A"}, "B26": {"name": "AB-007054 (antibody, V domains shown)", "VH": "B1 VH with A23T, A40S, S102A", "VL": "B1 VL with T20A"}, "B27": {"name": "AB-007055 (antibody, V domains shown)", "VH": "B1 VH with A23T, A40S, S102T", "VL": "B1 VL with T20A"}, "B28": {"name": "AB-007056 (antibody, V domains shown)", "VH": "B1 VH with A23T, A40S, S102Q", "VL": "B1 VL with T20A"}, "B29": {"name": "AB-007057 (antibody, V domains shown)", "VH": "B1 VH with A23T, A40S, S102H", "VL": "B1 VL with T20A"}, "B30": {"name": "AB-007058 (antibody, V domains shown)", "VH": "B1 VH with A23T, A40S, S103T", "VL": "B1 VL with T20A"}, "B31": {"name": "AB-007059 (antibody, V domains shown)", "VH": "B1 VH with A23T, A40S, S104T", "VL": "B1 VL with T20A"}, "B32": {"name": "AB-007060 (antibody, V domains shown)", "VH": "B1 VH with A23T, A40S, F105Y", "VL": "B1 VL with T20A"}, "B33": {"name": "AB-007061 (antibody, V domains shown)", "VH": "B1 VH with A23T, A40S", "VL": "B1 VL with T20A, S30D"}, "B34": {"name": "AB-007062 (antibody, V domains shown)", "VH": "B1 VH with A23T, A40S", "VL": "B1 VL with T20A, R31S"}, "B35": {"name": "AB-007063 (antibody, V domains shown)", "VH": "B1 VH with A23T, A40S", "VL": "B1 VL with T20A, S49A"}, "B36": {"name": "AB-007064 (antibody, V domains shown)", "VH": "B1 VH with A23T, A40S", "VL": "B1 VL with T20A, S49T"}, "B37": {"name": "AB-007065 (antibody, V domains shown)", "VH": "B1 VH with A23T, A40S", "VL": "B1 VL with T20A, G50K"}, "B38": {"name": "AB-007066 (antibody, V domains shown)", "VH": "B1 VH with A23T, A40S", "VL": "B1 VL with T20A, G50Q"}, "B39": {"name": "AB-007067 (antibody, V domains shown)", "VH": "B1 VH with A23T, A40S", "VL": "B1 VL with T20A, G50S"}, "B40": {"name": "AB-007068 (antibody, V domains shown)", "VH": "B1 VH with A23T, A40S", "VL": "B1 VL with T20A, G50L"}, "B41": {"name": "AB-007069 (antibody, V domains shown)", "VH": "B1 VH with A23T, A40S", "VL": "B1 VL with T20A, G50V"}, "B42": {"name": "AB-007070 (antibody, V domains shown)", "VH": "B1 VH with A23T, A40S", "VL": "B1 VL with T20A, G50A"}, "B43": {"name": "AB-007071 (antibody, V domains shown)", "VH": "B1 VH with A23T, A40S", "VL": "B1 VL with T20A, V53S"}, "B44": {"name": "AB-007072 (antibody, V domains shown)", "VH": "B1 VH with A23T, A40S", "VL": "B1 VL with T20A, V53N"}, "B45": {"name": "AB-007073 (antibody, V domains shown)", "VH": "B1 VH with A23T, A40S", "VL": "B1 VL with T20A, Y94H"}, "B46": {"name": "AB-007074 (antibody, V domains shown)", "VH": "B1 VH", "VL": "B1 VL with F95Y"}}, "note": "Numbering of substitutions follows the chain as printed."}
{"target": "T1, CSP Protein (Plasmodium falciparum, UniProt Q7K740 19-374)", "T1 construct": "also called circumsporozoite protein; complete CSP protein", "T1 sequence (Q7K740 19-374 limits assumed)": "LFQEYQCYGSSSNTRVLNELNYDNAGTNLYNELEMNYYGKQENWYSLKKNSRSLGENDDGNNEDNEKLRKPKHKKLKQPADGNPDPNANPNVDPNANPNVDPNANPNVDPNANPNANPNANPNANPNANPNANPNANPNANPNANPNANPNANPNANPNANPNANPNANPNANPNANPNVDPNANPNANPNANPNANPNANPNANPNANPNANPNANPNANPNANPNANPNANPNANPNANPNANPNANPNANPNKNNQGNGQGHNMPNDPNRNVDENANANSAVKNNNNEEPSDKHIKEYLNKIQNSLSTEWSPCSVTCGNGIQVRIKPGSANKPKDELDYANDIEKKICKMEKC", "assay": "SPR, antibody on chip;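 note: antibodies immobilized on a Carterra chip, directly or via anti-human Fc capture, at two spots each, with CSP flowed over at 4-5 concentrations peaking at 0.5-8 µg/mL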", "units": {"Kd": "nM"}, "experimental": "For SPR, each antibody was either directly coupled to a Carterra Chip or coupled using a goat anti-human Fc antibody. The uncoupled antibodies were washed off and various concentration gradients of the targets were flowed over the antibodies, where the highest concentration of each target was in the range 0.5-8 μg/mL. Each antibody was immobilized in two different locations on the chip to allow for duplicate measurements. The affinity for each antibody-target combination was determined using 4-5 target concentrations in Mathematica software. If variation between the two duplicates was >3-fold, the antibody-target measurement was repeated."}
{"binder": "B1", "Kd": 0.0457}
{"binder": "B2", "Kd": 0.132}
{"binder": "B3", "Kd": 0.0496}
{"binder": "B4", "Kd": 0.0469}
{"binder": "B5", "Kd": 0.0408}
{"binder": "B6", "Kd": 0.0824}
{"binder": "B7", "Kd": 0.0513}
{"binder": "B8", "Kd": 0.0967}
{"binder": "B9", "Kd": 0.0346}
{"binder": "B10", "Kd": 0.029}
{"binder": "B11", "Kd": 0.106}
{"binder": "B12", "Kd": 0.0447}
{"binder": "B13", "Kd": 0.0439}
{"binder": "B14", "Kd": 0.034}
{"binder": "B15", "Kd": 0.0426}
{"binder": "B16", "Kd": 0.0319}
{"binder": "B17", "Kd": 0.284}
{"binder": "B18", "Kd": 0.0364}
{"binder": "B19", "Kd": 0.175}
{"binder": "B20", "Kd": 0.437}
{"binder": "B21", "Kd": 0.152}
{"binder": "B22", "Kd": 0.147}
{"binder": "B23", "Kd": 0.0414}
{"binder": "B24", "Kd": 0.0261}
{"binder": "B25", "Kd": 0.298}
{"binder": "B26", "Kd": 0.17}
{"binder": "B27", "Kd": 0.374}
{"binder": "B28", "Kd": 0.042}
{"binder": "B29", "Kd": 0.153}
{"binder": "B30", "Kd": 0.149}
{"binder": "B31", "Kd": 1.08}
{"binder": "B32", "Kd": 0.199}
{"binder": "B33", "Kd": 0.0504}
{"binder": "B34", "Kd": 0.0849}
{"binder": "B35", "Kd": 0.0524}
{"binder": "B36", "Kd": 0.556}
{"binder": "B37", "Kd": 0.454}
{"binder": "B38", "Kd": 0.376}
{"binder": "B39", "Kd": 0.0877}
{"binder": "B40", "Kd": 0.152}
{"binder": "B41", "Kd": 0.174}
{"binder": "B42", "Kd": 0.177}
{"binder": "B43", "Kd": 0.0683}
{"binder": "B44", "Kd": 0.194}
{"binder": "B45", "Kd": 0.0816}
{"binder": "B46", "Kd": 0.0415}
